“And” between values parts separate entries of the source, which are not always exact repeats. Identical values can stand only once.
T1: human BCMA on Flp-inCHO-human BCMA cells (human, UniProt Q02223 1-184)
T1 construct: whole, on cells
T1 sequence (looked up): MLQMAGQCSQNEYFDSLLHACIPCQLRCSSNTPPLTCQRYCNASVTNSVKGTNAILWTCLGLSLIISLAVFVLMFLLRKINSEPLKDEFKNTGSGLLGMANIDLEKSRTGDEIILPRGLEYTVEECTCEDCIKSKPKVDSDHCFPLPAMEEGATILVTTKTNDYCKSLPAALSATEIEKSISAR

B1: antiFITC×CD3-Hab01 (bispecific antibody, human IgG4 S228P, kappa, F234A L235A)
heavy: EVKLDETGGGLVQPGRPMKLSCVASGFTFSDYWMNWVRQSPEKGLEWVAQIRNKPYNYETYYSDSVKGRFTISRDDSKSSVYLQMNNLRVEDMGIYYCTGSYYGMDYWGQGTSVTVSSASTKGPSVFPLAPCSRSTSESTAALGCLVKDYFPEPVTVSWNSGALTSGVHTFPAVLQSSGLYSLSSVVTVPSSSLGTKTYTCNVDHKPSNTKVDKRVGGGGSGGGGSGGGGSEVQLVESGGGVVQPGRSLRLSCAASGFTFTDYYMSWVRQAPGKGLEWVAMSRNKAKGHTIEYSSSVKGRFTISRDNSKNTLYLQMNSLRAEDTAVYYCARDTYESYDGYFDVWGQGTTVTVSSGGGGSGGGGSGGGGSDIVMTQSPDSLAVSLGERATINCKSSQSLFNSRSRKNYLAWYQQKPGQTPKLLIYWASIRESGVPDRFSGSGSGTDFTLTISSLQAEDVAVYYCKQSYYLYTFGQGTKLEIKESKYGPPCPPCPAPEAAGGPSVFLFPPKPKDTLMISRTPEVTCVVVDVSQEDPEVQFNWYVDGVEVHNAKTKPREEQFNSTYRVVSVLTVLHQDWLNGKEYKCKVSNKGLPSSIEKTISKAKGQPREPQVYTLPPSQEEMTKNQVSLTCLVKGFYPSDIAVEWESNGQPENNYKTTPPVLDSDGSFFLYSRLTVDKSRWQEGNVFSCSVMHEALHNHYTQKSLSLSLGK
light: DVVMTQTPLSLPVSLGDQASISCRSSQSLVHSNGNTYLRWYLQKPGQSPKVLIYKVSNRFSGVPDRFSGSGSGTDFTLKISRVEAEDLGVYFCSQSTHVPWTFGGGTKLEIKRTVAAPSVFIFPPSDEQLKSGTASVVCLLNNFYPREAKVQWKVDNALQSGNSQESVTEQDSKDSTYSLSSTLTLSKADYEKHKVYACEVTHQGLSSPVTKSFNRGEC
notes: Negative control for the tumor antigens, prepared internally; carries the CD3-Hab01 arm
B2: JNJ7564 (bispecific antibody, human IgG4 S228P, kappa, lambda, F234A L235A)
heavy 1: not shown
light 1: DIQMTQSPSSLSASVGDRVTITCKASQNVATHVGWYQQKPGKAPKRLIYSASYRYSGVPSRFSGSGSGTEFTLTISNLQPEDFATYYCQQYNRYPYTFGQGTKLEIKRTVAAPSVFIFPPSDEQLKSGTASVVCLLNNFYPREAKVQWKVDNALQSGNSQESVTEQDSKDSTYSLSSTLTLSKADYEKHKVYACEVTHQGLSSPVTKSFNRGEC
heavy 2: EVQLVESGGGLVQPGGSLRLSCAASGFTFNTYAMNWVRQAPGKGLEWVARIRSKYNNYATYYAASVKGRFTISRDDSKNSLYLQMNSLKTEDTAVYYCARHGNFGNSYVSWFAYWGQGTLVTVSSASTKGPSVFPLAPCSRSTSESTAALGCLVKDYFPEPVTVSWNSGALTSGVHTFPAVLQSSGLYSLSSVVTVPSSSLGTKTYTCNVDHKPSNTKVDKRVESKYGPPCPPCPAPEAAGGPSVFLFPPKPKDTLMISRTPEVTCVVVDVSQEDPEVQFNWYVDGVEVHNAKTKPREEQFNSTYRVVSVLTVLHQDWLNGKEYKCKVSNKGLPSSIEKTISKAKGQPREPQVYTLPPSQEEMTKNQVSLTCLVKGFYPSDIAVEWESNGQPENNYKTTPPVLDSDGSFLLYSKLTVDKSRWQEGNVFSCSVMHEALHNHYTQKSLSLSLGK
light 2: QTVVTQEPSLTVSPGGTVTLTCRSSTGAVTTSNYANWVQQKPGQAPRGLIGGTNKRAPGTPARFSGSLLGGKAALTLSGVQPEDEAEYYCALWYSNLWVFGGGTKLTVLGQPKAAPSVTLFPPSSEELQANKATLVCLISDFYPGAVTVAWKADSSPVKAGVETTTPSKQSNNKYAASSYLSLTPEQWKSHRSYSCQVTHEGSTVEKTVAPTECS
notes: Positive control, GPRC5D x CD3 bispecific of Johnson & Johnson (WO 2019220368 A1), made by reduction and reoxidation of the two parental antibodies
B3: REGN5459 (bispecific antibody, human IgG4 S228P, kappa)
heavy 1: EVQLVESGGGLVQPGGSLRLSCAASGFTFSNFWMTWVRQAPGKGLEWVANMNQDGSEKYYVDSVKGRFTISRDNAKSSLYLQMNSLRAEDTAVYYCARDREYCISTSCYDDFDYWGQGTLVTVSSASTKGPSVFPLAPCSRSTSESTAALGCLVKDYFPEPVTVSWNSGALTSGVHTFPAVLQSSGLYSLSSVVTVPSSSLGTKTYTCNVDHKPSNTKVDKRVESKYGPPCPPCPAPPVAGPSVFLFPPKPKDTLMISRTPEVTCVVVDVSQEDPEVQFNWYVDGVEVHNAKTKPREEQFNSTYRVVSVLTVLHQDWLNGKEYKCKVSNKGLPSSIEKTISKAKGQPREPQVYTLPPSQEEMTKNQVSLTCLVKGFYPSDIAVEWESNGQPENNYKTTPPVLDSDGSFFLYSRLTVDKSRWQEGNVFSCSVMHEALHNHYTQKSLSLSLGK
heavy 2: EVQLVESGGGLVQPGRSLRLSCAASGFTFDDYSMHWVRQAPGKGLEWVSGISWNSGSIGYADSVKGRFTISRDNAKNSLYLQMNSLRAEDTALYYCAKYGSGYGKFYYYGMDVWGQGTTVTVSSASTKGPSVFPLAPCSRSTSESTAALGCLVKDYFPEPVTVSWNSGALTSGVHTFPAVLQSSGLYSLSSVVTVPSSSLGTKTYTCNVDHKPSNTKVDKRVESKYGPPCPPCPAPPVAGPSVFLFPPKPKDTLMISRTPEVTCVVVDVSQEDPEVQFNWYVDGVEVHNAKTKPREEQFNSTYRVVSVLTVLHQDWLNGKEYKCKVSNKGLPSSIEKTISKAKGQPREPQVYTLPPSQEEMTKNQVSLTCLVKGFYPSDIAVEWESNGQPENNYKTTPPVLDSDGSFFLYSRLTVDKSRWQEGNVFSCSVMHEALHNRFTQKSLSLSLGK
light: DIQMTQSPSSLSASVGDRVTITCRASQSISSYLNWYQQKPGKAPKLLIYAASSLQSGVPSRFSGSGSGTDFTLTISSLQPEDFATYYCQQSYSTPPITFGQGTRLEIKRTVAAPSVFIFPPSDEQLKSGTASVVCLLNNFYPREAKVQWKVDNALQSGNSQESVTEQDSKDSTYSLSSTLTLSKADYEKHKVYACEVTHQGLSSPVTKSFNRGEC
notes: Positive control, BCMA x CD3 bispecific of Regeneron (WO 2020018820 A1), made in Expi293F; Fc with mutations that prevent homodimerization; also called RGEN5459
B4: Tri-17 (trispecific antibody, V domains shown)
VHH: EVQLVESGGGLVQPGGSLRLSCSASGFTLDYYMIGWFRQAPGKEREGLSSISPADGSTYYADSVKGRFTISRDSSKNTVYLQMNSLRAEDTAVYYCAAGNEATISWGFGPWEYDYWGQGTMVTVSS
VH 1: EVQLVQSGAEVKKPGSSVKVSCKASGYTFTSYGISWVRQAPGQGLEWMGEIYPRSGNTYYNEKFKGRVTLTADKSTSTAYMELSSLRSEDTAVYYCARGRAYGRNYPMDYWGQGTTVTVSS
VL 1: EIVLTQSPATLSLSPGERATLSCRASQSIGTSIHWYQQKPGQSPRLLIKYASESISGIPARFSGSGSGTDFTLTISSLEPEDFAVYYCQQSNSWPYTFGGGTKVEIK
VH 2: EVQLVESGGGVVQPGRSLRLSCAASGFTFTDYYMSWVRQAPGKGLEWVAMSRNKAKGHTIEYSSSVKGRFTISRDNSKNTLYLQMNSLRAEDTAVYYCARDTYESYDGYFDVWGQGTTVTVSS
VL 2: DIVMTQSPDSLAVSLGERATINCKSSQSLFNSRSRKNYLAWYQQKPGQTPKLLIYWASIRESGVPDRFSGSGSGTDFTLTISSLQAEDVAVYYCKQSYYLYTFGQGTKLEIK
B5: Tri-65 (trispecific antibody, V domains shown)
VHH: EVQLVESGGGLVQPGGSLRLSCAASESISSIHIMAWYRQAPGKQRELVAGIRNDGSTVYVDSVKGRFTISRDNAKNSLYLQMNSLRAEDTAVYYCNADQGFGSYSEWERRSRWGQGTTVTVSS
VH 1: EVQLVQSGAEVKKPGASVKVSCKTSGYIFTNFGITWVRQAPGQRLEWMGENYPRRINTYYNEKFKGRVTITADKSASTAYMELSSLRSEDTAVYYCSRKDIFGLSYALDYWGQGTTVTVSS
VL 1: DIQMTQSPSSLSASVGDRVTITCKASQNVGTNVAWYQHKPGKSPKALIYSASYQYSGVPSRFSGSGSGTDFTLTISSLQPEDVATYICQQYKNYPYTFGGGTKVEIK
VH 2: B4 VH 2
VL 2: B4 VL 2
B6: Tri-38 (trispecific antibody, V domains shown)
VHH: B4 VHH
VH 1: B4 VH 1
VL 1: B4 VL 1
VH 2: B4 VH 2
VL 2: B4 VL 2
B7: Tri-46 (trispecific antibody, V domains shown)
VHH: B5 VHH
VH 1: B4 VH 1
VL 1: B4 VL 1
VH 2: B4 VH 2
VL 2: B4 VL 2
B8: Tri-64 (trispecific antibody, V domains shown)
VHH: B5 VHH
VH 1: B4 VH 1
VL 1: B4 VL 1
VH 2: B4 VH 2
VL 2: B4 VL 2
B9: Tri-63 (trispecific antibody, V domains shown)
VHH: B5 VHH
VH 1: B4 VH 1
VL 1: B4 VL 1
VH 2: B4 VH 2
VL 2: B4 VL 2
B10: Tri-66 (trispecific antibody, V domains shown)
VHH: B5 VHH
VH 1: B5 VH 1
VL 1: B5 VL 1
VH 2: B4 VH 2
VL 2: B4 VL 2
B11: Tri-56 (trispecific antibody, V domains shown)
VHH: B5 VHH
VH 1: B4 VH 1
VL 1: B4 VL 1
VH 2: B4 VH 2
VL 2: B4 VL 2
B12: Tri-52 (trispecific antibody, V domains shown)
VHH: B5 VHH
VH 1: B4 VH 1
VL 1: B4 VL 1
VH 2: B4 VH 2
VL 2: B4 VL 2

Experiments:
[1] = molecular target: T2, human GPRC5D on CHOK1-human GPRC5D cells (human, UniProt Q9NZD1 1-345); assay: FACS, CHOK1-human GPRC5D cells
T2 construct: whole, on cells

[2] = molecular target: T3, monkey CD3 on activated monkey PBMC (monkey); assay: FACS, activated monkey PBMC
T3 construct: whole, on cells

[3] = molecular target: T1, human BCMA on Flp-inCHO-human BCMA cells; assay: FACS, Flp-inCHO-human BCMA cells
[4] = molecular target: T4, human CD3 on Jurkat cells and on activated human PBMC (human, UniProt P07766 23-207; P04234 22-171); assay: FACS, activated human PBMC
T4 construct: whole, on cells; Endogenous CD3 of the T cell receptor complex on cells

[5] = molecular target: T4, human CD3 on Jurkat cells and on …; assay: FACS, Jurkat cells

T2 sequence (Q9NZD1 whole entry): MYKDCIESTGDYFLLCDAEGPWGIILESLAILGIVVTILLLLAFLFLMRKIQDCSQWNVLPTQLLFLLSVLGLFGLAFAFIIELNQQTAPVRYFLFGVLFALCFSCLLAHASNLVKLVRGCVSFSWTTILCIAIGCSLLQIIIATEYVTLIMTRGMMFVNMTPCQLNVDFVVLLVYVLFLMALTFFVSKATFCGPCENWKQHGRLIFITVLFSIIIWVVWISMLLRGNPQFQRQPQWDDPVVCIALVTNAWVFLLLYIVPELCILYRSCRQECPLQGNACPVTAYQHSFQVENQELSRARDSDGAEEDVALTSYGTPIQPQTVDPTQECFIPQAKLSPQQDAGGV
T3 sequence (Q95LI5 22-198): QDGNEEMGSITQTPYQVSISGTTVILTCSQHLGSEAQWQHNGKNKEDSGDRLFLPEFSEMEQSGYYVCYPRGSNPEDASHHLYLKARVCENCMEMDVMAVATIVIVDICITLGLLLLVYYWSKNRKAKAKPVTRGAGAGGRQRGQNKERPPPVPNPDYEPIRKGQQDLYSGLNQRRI
T4 sequence (P07766 23-207, chain 1 of 2): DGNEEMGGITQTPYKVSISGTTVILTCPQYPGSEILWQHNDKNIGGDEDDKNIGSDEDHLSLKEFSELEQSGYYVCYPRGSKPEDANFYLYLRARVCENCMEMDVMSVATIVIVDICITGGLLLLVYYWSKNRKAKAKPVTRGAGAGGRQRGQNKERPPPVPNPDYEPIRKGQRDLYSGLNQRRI
T4 sequence (P04234 22-171, chain 2 of 2): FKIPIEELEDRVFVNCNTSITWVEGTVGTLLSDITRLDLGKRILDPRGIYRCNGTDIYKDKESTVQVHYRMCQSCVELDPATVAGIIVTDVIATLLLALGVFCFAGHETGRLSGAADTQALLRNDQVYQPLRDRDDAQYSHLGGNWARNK

Binder	binding result [1]	EC50 [2]	binding result [3]	EC50 [4]	EC50 [5]	EC50 [1]	Maximum mean fluorescence intensity [2]	EC50 [3]
B1	no binding (tested: 100 nM highest concentration)	15.2 nM and 12.4 nM	no binding (tested: 100 nM highest concentration)	–	–	–	–	–
B2	–	5.79 nM and 5.72 nM	no binding (tested: 100 nM highest concentration)	5.21 nM and 7.36 nM	–	–	–	–
B3	no binding (tested: 100 nM highest concentration)	161 nM	–	223 nM and 221 nM	74.7 nM and 49.7 nM and 66.8 nM and 101 nM	–	–	–
B4	–	–	–	–	–	0.69 nM	3280	2.97 nM
B5	–	–	–	–	–	1.66 nM	377	2.54 nM
B6	–	–	–	–	–	2.06 nM	1440	4.43 nM
B7	–	–	–	–	–	2.36 nM	416	5.19 nM
B8	–	–	–	–	–	3.63 nM	348	1.08 nM
B9	–	–	–	–	–	3.8 nM	434	2.1 nM
B10	–	–	–	–	–	1.53 nM	345	1.09 nM
B11	–	–	–	–	–	0.38 nM	575	1.3 nM
B12	–	–	–	–	–	2.97 nM	693	1.88 nM

— patent EP4538294A1 (Shandong Simcere Biopharmaceutical Co., Ltd., dated 2025)
